T1: IL-18 receptor on HEK-Blue IL18R reporter cells (UniProt Q13478 19-541; O95256 20-599, limits assumed)
T1 sequence (looked up) 1: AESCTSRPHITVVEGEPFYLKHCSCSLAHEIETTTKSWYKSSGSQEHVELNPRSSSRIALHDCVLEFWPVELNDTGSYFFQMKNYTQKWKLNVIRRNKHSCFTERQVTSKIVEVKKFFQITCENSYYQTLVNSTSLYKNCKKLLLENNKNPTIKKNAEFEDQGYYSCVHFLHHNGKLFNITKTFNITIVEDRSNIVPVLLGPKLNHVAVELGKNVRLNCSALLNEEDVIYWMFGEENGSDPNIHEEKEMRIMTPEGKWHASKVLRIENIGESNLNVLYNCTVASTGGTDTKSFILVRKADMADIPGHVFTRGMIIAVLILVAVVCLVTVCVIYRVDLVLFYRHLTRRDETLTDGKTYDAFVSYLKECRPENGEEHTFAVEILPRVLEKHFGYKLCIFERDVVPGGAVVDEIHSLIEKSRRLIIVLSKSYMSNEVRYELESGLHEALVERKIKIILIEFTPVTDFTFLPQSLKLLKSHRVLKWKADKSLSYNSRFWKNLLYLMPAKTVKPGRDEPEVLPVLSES
T1 sequence (looked up) 2: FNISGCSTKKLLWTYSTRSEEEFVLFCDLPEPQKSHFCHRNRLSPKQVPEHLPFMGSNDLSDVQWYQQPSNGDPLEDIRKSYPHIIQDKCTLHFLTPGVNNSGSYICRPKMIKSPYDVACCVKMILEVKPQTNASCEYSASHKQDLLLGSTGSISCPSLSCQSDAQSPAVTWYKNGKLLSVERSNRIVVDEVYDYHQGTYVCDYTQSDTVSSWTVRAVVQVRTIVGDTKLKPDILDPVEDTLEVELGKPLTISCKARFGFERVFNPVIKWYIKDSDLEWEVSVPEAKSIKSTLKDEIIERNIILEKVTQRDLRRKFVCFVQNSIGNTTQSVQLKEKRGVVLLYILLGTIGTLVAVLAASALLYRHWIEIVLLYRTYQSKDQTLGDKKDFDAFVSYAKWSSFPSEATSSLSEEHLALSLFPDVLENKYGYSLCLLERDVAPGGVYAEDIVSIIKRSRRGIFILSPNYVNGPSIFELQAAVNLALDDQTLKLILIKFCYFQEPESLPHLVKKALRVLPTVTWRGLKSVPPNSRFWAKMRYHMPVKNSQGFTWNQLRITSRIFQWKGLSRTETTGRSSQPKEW


Target: T1, IL-18 receptor on HEK-Blue IL18R …
Experiment: cell-based or functional assay

| Binder | EC50, HEK-Blue IL18R reporter (SEAP) [nM] |
| --- | --- |
| modified IL-18 polypeptide SEQ ID NO: 30 (E6K, V11I, C38A, K53A, T63A, C76A, C127A) (ligand) YFGKLKSKLSIIRNLNDQVLFIDQGNRPLFEDMTDSDARDNAPRTIFIISMYADSQPRGMAVAISVKCEKISTLSAENKIISFKEMNPPDNIKDTKSDIIFFQRSVPGHDNKMQFESSSYEGYFLAAEKERDLFKLILKKEDELGDRSIMFTVQNED | 0.053 |
| modified IL-18 polypeptide SEQ ID NO: 206 (V11I, C38A, K53A, S55A, C76A, C127A) (ligand) YFGKLESKLSIIRNLNDQVLFIDQGNRPLFEDMTDSDARDNAPRTIFIISMYADAQPRGMAVTISVKCEKISTLSAENKIISFKEMNPPDNIKDTKSDIIFFQRSVPGHDNKMQFESSSYEGYFLAAEKERDLFKLILKKEDELGDRSIMFTVQNED | 3.63 |
| modified IL-18 polypeptide SEQ ID NO: 204 (V11I, C38A, K53A, C76A, C127A) (ligand) YFGKLESKLSIIRNLNDQVLFIDQGNRPLFEDMTDSDARDNAPRTIFIISMYADSQPRGMAVTISVKCEKISTLSAENKIISFKEMNPPDNIKDTKSDIIFFQRSVPGHDNKMQFESSSYEGYFLAAEKERDLFKLILKKEDELGDRSIMFTVQNED | 0.98 |
| modified IL-18 polypeptide SEQ ID NO: 209 (F2A, V11I, C38A, K53A, C76A, C127A) (ligand) YAGKLESKLSIIRNLNDQVLFIDQGNRPLFEDMTDSDARDNAPRTIFIISMYADSQPRGMAVTISVKCEKISTLSAENKIISFKEMNPPDNIKDTKSDIIFFQRSVPGHDNKMQFESSSYEGYFLAAEKERDLFKLILKKEDELGDRSIMFTVQNED | 7.28 |
| modified IL-18 polypeptide SEQ ID NO: 207 (V11I, C38A, M51G, K53A, C76A, C127A) (ligand) YFGKLESKLSIIRNLNDQVLFIDQGNRPLFEDMTDSDARDNAPRTIFIISGYADSQPRGMAVTISVKCEKISTLSAENKIISFKEMNPPDNIKDTKSDIIFFQRSVPGHDNKMQFESSSYEGYFLAAEKERDLFKLILKKEDELGDRSIMFTVQNED | 0.8 |
| modified IL-18 polypeptide SEQ ID NO: 205 (V11I, C38A, K53A, T63A, C76A, C127A) (ligand) YFGKLESKLSIIRNLNDQVLFIDQGNRPLFEDMTDSDARDNAPRTIFIISMYADSQPRGMAVAISVKCEKISTLSAENKIISFKEMNPPDNIKDTKSDIIFFQRSVPGHDNKMQFESSSYEGYFLAAEKERDLFKLILKKEDELGDRSIMFTVQNED | 0.17 |
| modified IL-18 polypeptide SEQ ID NO: 208 (V11I, C38A, K53A, D54A, C76A, C127A) (ligand) YFGKLESKLSIIRNLNDQVLFIDQGNRPLFEDMTDSDARDNAPRTIFIISMYAASQPRGMAVTISVKCEKISTLSAENKIISFKEMNPPDNIKDTKSDIIFFQRSVPGHDNKMQFESSSYEGYFLAAEKERDLFKLILKKEDELGDRSIMFTVQNED | 1 |
| modified IL-18 polypeptide SEQ ID NO: 210 (V11I, E31A, C38A, K53A, C76A, C127A) (ligand) YFGKLESKLSIIRNLNDQVLFIDQGNRPLFADMTDSDARDNAPRTIFIISMYADSQPRGMAVTISVKCEKISTLSAENKIISFKEMNPPDNIKDTKSDIIFFQRSVPGHDNKMQFESSSYEGYFLAAEKERDLFKLILKKEDELGDRSIMFTVQNED | 6.6 |
| modified IL-18 polypeptide SEQ ID NO: 211 (V11I, T34A, C38A, K53A, C76A, C127A) (ligand) YFGKLESKLSIIRNLNDQVLFIDQGNRPLFEDMADSDARDNAPRTIFIISMYADSQPRGMAVTISVKCEKISTLSAENKIISFKEMNPPDNIKDTKSDIIFFQRSVPGHDNKMQFESSSYEGYFLAAEKERDLFKLILKKEDELGDRSIMFTVQNED | 0.7 |
| modified IL-18 polypeptide SEQ ID NO: 59 (E6K, C38A, K53A) (ligand) YFGKLKSKLSVIRNLNDQVLFIDQGNRPLFEDMTDSDARDNAPRTIFIISMYADSQPRGMAVTISVKCEKISTLSCENKIISFKEMNPPDNIKDTKSDIIFFQRSVPGHDNKMQFESSSYEGYFLACEKERDLFKLILKKEDELGDRSIMFTVQNED | 0.268 |
| modified IL-18 polypeptide SEQ ID NO: 63 (E6K, C38A, K53A, C76A, C127A) (ligand) YFGKLKSKLSVIRNLNDQVLFIDQGNRPLFEDMTDSDARDNAPRTIFIISMYADSQPRGMAVTISVKCEKISTLSAENKIISFKEMNPPDNIKDTKSDIIFFQRSVPGHDNKMQFESSSYEGYFLAAEKERDLFKLILKKEDELGDRSIMFTVQNED | 0.0139 |
| modified IL-18 polypeptide SEQ ID NO: 61 (E6K, C38A, K53A, C76A) (ligand) YFGKLKSKLSVIRNLNDQVLFIDQGNRPLFEDMTDSDARDNAPRTIFIISMYADSQPRGMAVTISVKCEKISTLSAENKIISFKEMNPPDNIKDTKSDIIFFQRSVPGHDNKMQFESSSYEGYFLACEKERDLFKLILKKEDELGDRSIMFTVQNED | 0.084 |
| modified IL-18 polypeptide SEQ ID NO: 60 (E6K, C38Q, K53A) (ligand) YFGKLKSKLSVIRNLNDQVLFIDQGNRPLFEDMTDSDQRDNAPRTIFIISMYADSQPRGMAVTISVKCEKISTLSCENKIISFKEMNPPDNIKDTKSDIIFFQRSVPGHDNKMQFESSSYEGYFLACEKERDLFKLILKKEDELGDRSIMFTVQNED | 0.203 |
| modified IL-18 polypeptide SEQ ID NO: 62 (E6K, C38A, K53A, C127A) (ligand) YFGKLKSKLSVIRNLNDQVLFIDQGNRPLFEDMTDSDARDNAPRTIFIISMYADSQPRGMAVTISVKCEKISTLSCENKIISFKEMNPPDNIKDTKSDIIFFQRSVPGHDNKMQFESSSYEGYFLAAEKERDLFKLILKKEDELGDRSIMFTVQNED | 0.17 |

Results, then the binder that gave them:

| EC50, HEK-Blue IL18R reporter (SEAP) [nM] | Binder |
| --- | --- |
| 11.9 | modified IL-18 polypeptide SEQ ID NO: 215 (V11I, E31A, D37A, C38A, K53A, C76A, C127A) (ligand) YFGKLESKLSIIRNLNDQVLFIDQGNRPLFADMTDSAARDNAPRTIFIISMYADSQPRGMAVTISVKCEKISTLSAENKIISFKEMNPPDNIKDTKSDIIFFQRSVPGHDNKMQFESSSYEGYFLAAEKERDLFKLILKKEDELGDRSIMFTVQNED |
| 13.1 | modified IL-18 polypeptide SEQ ID NO: 212 (V11I, D35A, C38A, K53A, C76A, C127A) (ligand) YFGKLESKLSIIRNLNDQVLFIDQGNRPLFEDMTASDARDNAPRTIFIISMYADSQPRGMAVTISVKCEKISTLSAENKIISFKEMNPPDNIKDTKSDIIFFQRSVPGHDNKMQFESSSYEGYFLAAEKERDLFKLILKKEDELGDRSIMFTVQNED |
| 14.1 | modified IL-18 polypeptide SEQ ID NO: 214 (V11I, D37A, C38A, K53A, C76A, C127A) (ligand) YFGKLESKLSIIRNLNDQVLFIDQGNRPLFEDMTDSAARDNAPRTIFIISMYADSQPRGMAVTISVKCEKISTLSAENKIISFKEMNPPDNIKDTKSDIIFFQRSVPGHDNKMQFESSSYEGYFLAAEKERDLFKLILKKEDELGDRSIMFTVQNED |
| 11.7 | modified IL-18 polypeptide SEQ ID NO: 217 (V11I, C38A, N41A, K53A, C76A, C127A) (ligand) YFGKLESKLSIIRNLNDQVLFIDQGNRPLFEDMTDSDARDAAPRTIFIISMYADSQPRGMAVTISVKCEKISTLSAENKIISFKEMNPPDNIKDTKSDIIFFQRSVPGHDNKMQFESSSYEGYFLAAEKERDLFKLILKKEDELGDRSIMFTVQNED |
| 19.5 | modified IL-18 polypeptide SEQ ID NO: 220 (V11I, C38A, K53A, C76A, H109A, C127A) (ligand) YFGKLESKLSIIRNLNDQVLFIDQGNRPLFEDMTDSDARDNAPRTIFIISMYADSQPRGMAVTISVKCEKISTLSAENKIISFKEMNPPDNIKDTKSDIIFFQRSVPGADNKMQFESSSYEGYFLAAEKERDLFKLILKKEDELGDRSIMFTVQNED |
| 1.95 | modified IL-18 polypeptide SEQ ID NO: 218 (V11I, C38A, K53A, C76A, C127A, D132A) (ligand) YFGKLESKLSIIRNLNDQVLFIDQGNRPLFEDMTDSDARDNAPRTIFIISMYADSQPRGMAVTISVKCEKISTLSAENKIISFKEMNPPDNIKDTKSDIIFFQRSVPGHDNKMQFESSSYEGYFLAAEKERALFKLILKKEDELGDRSIMFTVQNED |
| 0.25 | modified IL-18 polypeptide SEQ ID NO: 213 (V11I, S36A, C38A, K53A, C76A, C127A) (ligand) YFGKLESKLSIIRNLNDQVLFIDQGNRPLFEDMTDADARDNAPRTIFIISMYADSQPRGMAVTISVKCEKISTLSAENKIISFKEMNPPDNIKDTKSDIIFFQRSVPGHDNKMQFESSSYEGYFLAAEKERDLFKLILKKEDELGDRSIMFTVQNED |
| 15.6 | modified IL-18 polypeptide SEQ ID NO: 219 (V11I, C38A, K53A, C76A, G108A, C127A) (ligand) YFGKLESKLSIIRNLNDQVLFIDQGNRPLFEDMTDSDARDNAPRTIFIISMYADSQPRGMAVTISVKCEKISTLSAENKIISFKEMNPPDNIKDTKSDIIFFQRSVPAHDNKMQFESSSYEGYFLAAEKERDLFKLILKKEDELGDRSIMFTVQNED |
| 0.52 | modified IL-18 polypeptide SEQ ID NO: 216 (V11I, C38A, D40A, K53A, C76A, C127A) (ligand) YFGKLESKLSIIRNLNDQVLFIDQGNRPLFEDMTDSDARANAPRTIFIISMYADSQPRGMAVTISVKCEKISTLSAENKIISFKEMNPPDNIKDTKSDIIFFQRSVPGHDNKMQFESSSYEGYFLAAEKERDLFKLILKKEDELGDRSIMFTVQNED |
